B1: Hammerhead Ribozyme (parent)
chain: ACCGGAUGUGCUUUCCGGUCUGAUGAGUCCGUGAGGACGAAACAG

Variants of B1 are the subject of the data set. Nature of the data set: self-cleavage, relative activity (ratio to wild type); higher = more cleavage; co-transcriptional.
Regarding C20U A41G, the self-cleavage amounted to 0.349. Regarding A23U A34C, the self-cleavage is 0.345. Consider C11G A26G, for which the self-cleavage is 0.393. Take U14C A41U: the self-cleavage came to 0.296. Next, C3G U24A: 0.511. Take A6G C11G: the self-cleavage stood at 0.921. In the case of U24C U32G, the self-cleavage stood at 0.802.

In the case of C11A G18U, the self-cleavage amounted to 1.04. As to U32C G39C, the self-cleavage turned out to be 0.375.

Turning to U9C C30U, the self-cleavage is 0.709.

In the case of C15A U19C, the self-cleavage turned out to be 0.366. Consider G10C C16A, for which the self-cleavage was 0.995. Take G4C U24A: the self-cleavage turned out to be 0.777.

U24A A40C: the self-cleavage turned out to be 0.421.

In the case of G22U C30A, the self-cleavage stood at 0.296. With G18A C20G, the self-cleavage was determined as 0.367. U28C A42G: the self-cleavage was determined as 0.251. Next, U12C G18C: 0.5; U12C G18A: 0.627; U12A A41U: 0.388. The value for U7C U13G was 0.7.

Consider C3G C30G, for which the self-cleavage is 0.273. Turning to U12G U21C, the self-cleavage was determined as 0.807. The value for A1G G27A was 1.07. For the variant A1G G27U, the self-cleavage was found to be 0.585.

Turning to G36U A40U, the self-cleavage turned out to be 0.281. Next, C16U G33U: 0.945; G8U G36A: 0.658; U7G G33C: 1.23. Next, A23U G36A: 0.375.

As to U12C A34C, the self-cleavage turned out to be 0.877.

With G18A A44U, the self-cleavage came out at 0.433. With C16U A40C, the self-cleavage amounted to 0.507. Next, A26G G27C: 0.297.

As to G8A G10U, the self-cleavage worked out at 1.31. As to U19G A44C, the self-cleavage was 0.361. G4A A6C: the self-cleavage was found to be 0.232.

On to U32A A37U, for which the self-cleavage was 0.754.

Turning to G39U A42G, the self-cleavage stood at 0.342. Consider C38U G39A, for which the self-cleavage was 0.363. For the variant U13C U19C, the self-cleavage was 0.877. For U12C A40C, the self-cleavage was determined as 0.531. Take U12G A34C: the self-cleavage turned out to be 0.841.

Take G10A C15A: the self-cleavage was determined as 0.927.

As for G5U A26U, the self-cleavage worked out at 0.449. Turning to G36A A42C, the self-cleavage came out at 0.287. Consider G17C A37G, for which the self-cleavage came to 0.355. The value for C3U G31U was 1.17; that for A6C A34G was 0.722; that for G17C G27A was 0.446. Take C30G C43U: the self-cleavage is 0.276. As for A26C G39U, the self-cleavage is 0.351. Regarding U9G A23U, the self-cleavage came out at 0.366. Consider U32G G33C, for which the self-cleavage stood at 0.966. Take C15A G31A: the self-cleavage came out at 1.05. Consider C11U C43G, for which the self-cleavage came out at 0.392. For the variant G4C C16U, the self-cleavage is 1.39.

For G4U G31U, the self-cleavage is 0.75. Turning to C30U A34C, the self-cleavage stood at 1.03. With C15U C43U, the self-cleavage was 0.483. G36U C43A: the self-cleavage came to 0.36. G35C G36U: the self-cleavage came out at 0.401. For the variant G17C A26G, the self-cleavage was 0.353. For the variant G8C G31U, the self-cleavage turned out to be 0.679. For U9A C15G, the self-cleavage was determined as 0.758. For G4U G22C, the self-cleavage turned out to be 0.345. For the variant C16A A40U, the self-cleavage is 0.284.

With A6G C15A, the self-cleavage was 0.707.

As to U28A A44C, the self-cleavage worked out at 0.38.

As to U9G A40C, the self-cleavage turned out to be 0.423. Regarding U9C C38G, the self-cleavage was 0.805. As for U13G G22A, the self-cleavage amounted to 0.383. C3G U21G: the self-cleavage stood at 0.298. For the variant G33U G39A, the self-cleavage was found to be 0.341.

For G5A G45U, the self-cleavage is 0.587.

On to G5C A40U, for which the self-cleavage is 0.23. Turning to U9G C29A, the self-cleavage came out at 0.655. With G5U A40G, the self-cleavage came to 0.35.

Take A40C A44G: the self-cleavage was found to be 0.69. On to C3U G35C, for which the self-cleavage worked out at 0.625. For the variant C3U G35A, the self-cleavage turned out to be 0.487.

On to G22C C43G, for which the self-cleavage was determined as 0.24.

Regarding G10C U21C, the self-cleavage was 0.673. For the variant C15G G22C, the self-cleavage turned out to be 0.331. The value for G5C C43G was 0.33; that for G25U was 0.331; that for G27A A42C was 0.308. Take C29U A40C: the self-cleavage was 0.51. Turning to A44G G45A, the self-cleavage stood at 1.25. Regarding U13C A26U, the self-cleavage turned out to be 0.622. The value for C2A U13C was 1.05.

For A1G A42C, the self-cleavage came to 0.361. In the case of C3U U12C, the self-cleavage turned out to be 0.99. As to U28G G39U, the self-cleavage was 0.32. As to G4U C29A, the self-cleavage was found to be 0.265. In the case of G35U A42G, the self-cleavage stood at 0.253.

With U14C U21A, the self-cleavage was 0.347. As for C2U C38U, the self-cleavage was 1.21. Consider A40G G45A, for which the self-cleavage is 0.441. In the case of C3U U19C, the self-cleavage stood at 0.539. For the variant C15G C29A, the self-cleavage amounted to 0.404. For the variant A1U A44C, the self-cleavage was 0.574. As to C16A U28G, the self-cleavage amounted to 0.638. Next, G17A G22U: 0.345. Take C3G G22A: the self-cleavage worked out at 0.304. As to C15A C30G, the self-cleavage came to 0.557.

Regarding C11A A44U, the self-cleavage amounted to 0.666. As to C20G A23U, the self-cleavage was found to be 0.317. For the variant C20A G22A, the self-cleavage came out at 0.287. On to G17U A40U, for which the self-cleavage is 0.376.

In the case of U12A U21A, the self-cleavage was found to be 0.658.

For C29A G31U, the self-cleavage was 0.611. With U12C U24G, the self-cleavage came to 1.13.

As for G4C C38U, the self-cleavage worked out at 0.643. Next, G5C G8A: 0.619; C11G A40C: 0.838; U13A G45U: 1.02. G39U A44C: the self-cleavage is 0.417.

As for A1G G5U, the self-cleavage stood at 0.805.

As to C20U C29U, the self-cleavage was 0.395. As for G27A G39U, the self-cleavage turned out to be 0.348. On to G25A A40G, for which the self-cleavage turned out to be 0.267. As for U12A A44U, the self-cleavage is 0.61. On to G36C G39C, for which the self-cleavage was determined as 0.335. In the case of U14A G36A, the self-cleavage turned out to be 0.485. As to G17A G39C, the self-cleavage is 0.333. As for A1C U14C, the self-cleavage turned out to be 0.331.

As to G33C A42U, the self-cleavage was 0.28. As for C2U G27C, the self-cleavage came to 0.654. For the variant C30G G36A, the self-cleavage is 0.553. Take U12G G17U: the self-cleavage came out at 0.943. For the variant G17C C38U, the self-cleavage was found to be 0.453.

U7C U28C: the self-cleavage was found to be 0.792. Regarding U19A G25A, the self-cleavage came out at 0.347. With U24G G35A, the self-cleavage was found to be 1.03. With U9G G25C, the self-cleavage was 0.383. As for C16A U21A, the self-cleavage was found to be 0.668.

As for G17A G18C, the self-cleavage is 0.341. As for U7C A41G, the self-cleavage was 0.322. For C16A C29G, the self-cleavage was found to be 0.566. The value for G10A U32G was 0.936; that for C16G G31A was 1.16; that for G4A A40C was 0.359. Regarding G5U G17U, the self-cleavage is 0.351. G18U G33C: the self-cleavage came to 0.602. In the case of G10C G31A, the self-cleavage is 1.25.

With U9C A44U, the self-cleavage is 0.661. On to C11G G18U, for which the self-cleavage is 0.725. In the case of G31U A34G, the self-cleavage came to 0.938.

For C2U G31U, the self-cleavage came to 1.12. Next, U14C A42C: 0.33; U24G A40U: 0.308; A1U C2A: 0.672. For C16A G39U, the self-cleavage was 0.336. The value for G10U A23G was 0.388; that for U32A G36C was 0.37. As for C15A U28A, the self-cleavage came to 0.413. In the case of C15A U28G, the self-cleavage worked out at 0.378. As to G22U, the self-cleavage is 0.362.

Take G18A G39C: the self-cleavage is 0.326.

Consider C20G G31A, for which the self-cleavage came to 0.319.

In the case of C3A G39U, the self-cleavage amounted to 0.235.

C30A G33C: the self-cleavage came to 0.755. For the variant C20U A23U, the self-cleavage came to 0.279. Consider G18U G31U, for which the self-cleavage came out at 0.781. C38A G45A: the self-cleavage turned out to be 0.464. For the variant U24A G33A, the self-cleavage was 1.

(Values after the RNAGym collection of RNA variant scans (doi:10.7554/elife.80360).)
